Holding throughout (experiment): SPR; Biacore T200, C1 chip, 25 °C, HBS-EP+ (10 mM HEPES, 150 mM NaCl, 3 mM EDTA, 0.05% P20, pH 7.4); antibody Fc variants captured via anti-human Fab-kappa nanobody (about 60 RU), Fc only variants amine-coupled (60-80 RU), cytokine-Fc fusions captured via anti-PGLALA F(ab')2 (35-40 RU); PRYSPRY domain injected in five two-fold dilutions from 500, 1000 or 2000 nM; global fit, Langmuir 1:1, affinity mode

One test addresses Briakinumab (human).
Test [1] deals with anti-AAV2 capsid antibody A20 WT (bivalent, human IgG1 Fc WT) (human).
anti-AAV2 capsid antibody A20 WT (bivalent, human IgG1 Fc WT) (human), sequence (heavy, as listed by the source, chain 1 of 2): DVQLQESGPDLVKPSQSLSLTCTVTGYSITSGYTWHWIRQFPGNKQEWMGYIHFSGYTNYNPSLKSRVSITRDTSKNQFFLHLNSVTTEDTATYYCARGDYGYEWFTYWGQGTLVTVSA
anti-AAV2 capsid antibody A20 WT (bivalent, human IgG1 Fc WT) (human), sequence (light, as listed by the source, chain 2 of 2): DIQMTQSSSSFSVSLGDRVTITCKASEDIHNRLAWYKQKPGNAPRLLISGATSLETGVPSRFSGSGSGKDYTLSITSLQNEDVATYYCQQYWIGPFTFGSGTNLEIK
Test [2] addresses mAb1 HH-AAA (asymmetrical human IgG1, one Fc heavy chain HH, the other AAA) (human).
Test [3] deals with mAb1 WT-AAA (asymmetrical human IgG1, one Fc heavy chain H310A, H433A, Y436A) (human).

pKd: −log10 of the molar value.

Briakinumab (human), sequence (heavy, as listed by the source, chain 1 of 2): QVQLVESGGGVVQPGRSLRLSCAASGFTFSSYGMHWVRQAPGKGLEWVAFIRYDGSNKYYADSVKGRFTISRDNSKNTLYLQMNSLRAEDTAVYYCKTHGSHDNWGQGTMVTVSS
Briakinumab (human), sequence (light, as listed by the source, chain 2 of 2): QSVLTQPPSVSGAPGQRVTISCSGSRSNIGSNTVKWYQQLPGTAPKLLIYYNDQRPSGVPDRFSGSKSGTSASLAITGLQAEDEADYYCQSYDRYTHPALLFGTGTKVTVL
TRIM21 PRYSPRY domain, sequence (P19474 277-475): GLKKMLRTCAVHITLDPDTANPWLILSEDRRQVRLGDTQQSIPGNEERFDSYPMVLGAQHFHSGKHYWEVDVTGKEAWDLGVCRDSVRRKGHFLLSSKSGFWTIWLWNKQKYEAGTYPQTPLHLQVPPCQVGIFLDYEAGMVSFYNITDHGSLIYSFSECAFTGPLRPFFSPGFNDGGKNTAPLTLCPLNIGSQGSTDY

For the substance “TRIM21 PRYSPRY domain (from UniProt P19474-1 277-475) (domain or fragment)”, the pKd (as a rule, the negative decadic logarithm of the Kd, by convention in mol/L) in the test with Briakinumab (human) is 7.28; in test [1], 7.34; in test [2] it was 6.92. Further, the dissociation rate constant (koff) (usually the rate constant with which the complex falls apart) in the test with Briakinumab (human) amounted to 0.115 s⁻¹; in test [1], 0.0876 s⁻¹; in test [2], 0.434 s⁻¹. Moreover, the kon – broadly, the rate constant with which the complex forms – with Briakinumab (human) stood at 2.2e+06 M⁻¹ s⁻¹; in test [1], 1.92e+06 M⁻¹ s⁻¹; in test [2], 3.63e+06 M⁻¹ s⁻¹; in test [3], 2.66e+06 M⁻¹ s⁻¹.
